One block for each molecule: values may come before it.
Tests used:
[1] = target: T1, human LCAT-like protein/FLAG fusion protein (Homo sapiens, UniProt Q8NCC3); experiment: Influence of DFP and DTNB on esterase activity assayed with PNPB; assay type: biochemical; details: inhibitor pre-incubated 25° C. for 1 hour before substrate; PNPB 500 μM; fusion protein 3.4 μg/ml; FIG. 18
T1 construct: made in house; host or cells: baculovirus (Bac-To-Bac); secreted into the culture supernatant
T1 sequence (Q8NCC3 34-412): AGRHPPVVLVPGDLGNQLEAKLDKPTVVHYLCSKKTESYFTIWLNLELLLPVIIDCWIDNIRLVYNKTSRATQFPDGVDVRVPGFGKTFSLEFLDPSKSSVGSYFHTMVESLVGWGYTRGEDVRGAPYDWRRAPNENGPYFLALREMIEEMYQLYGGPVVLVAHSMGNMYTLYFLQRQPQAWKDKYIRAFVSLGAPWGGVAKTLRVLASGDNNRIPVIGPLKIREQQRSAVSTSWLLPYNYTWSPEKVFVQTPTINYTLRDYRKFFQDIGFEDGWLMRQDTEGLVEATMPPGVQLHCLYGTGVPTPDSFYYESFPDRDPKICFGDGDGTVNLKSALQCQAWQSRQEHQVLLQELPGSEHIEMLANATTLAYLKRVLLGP

[2] = Esterase activity assay using the fatty acid ester p-nitrophenyl butyrate (PNPB); assay type: biochemical
Method: Assays were carried out in accordance with the method of Bonelli, F. S. and Jonas, A. [Journal of Biological Chemistry, 264, 14723–14728, 1989]. Thus, to the reaction buffer (10 mM Tris, pH 7.4, 150 mM NaCl, 0.01% EDTA, 1 mM NaN3) was added a graded solution of p-nitrophenyl butyrate (PNPB) in acetonitrile (final concentration:5 mM–50 μM) as the substrate. Then, the human LCAT-like protein/FLAG fusion protein obtained in Example 9 was added (final concentration:3.4 μg/ml) to make 1 ml. The mixture was incubated at 37° C. for 20 minutes and the absorbance at 400 nm was measured at 2-minute intervals. From the percent changes in absorbance at the respective substrate concentrations, initial velocity was calculated, and according to the Lineweaver-Burk method, Vmax and Km were calculated (FIG. 16). […] Using 50 μl of the semi-purified enzyme solution of fractions 6 and 7 (4 ml) obtained in Example 12 (FIG. 14), a similar activity assay was carried out at a substrate concentration of 100 μM.

[3] = PNPB 5 mM–50 μM, protein 3.4 μg/ml, 37° C., compared with human plasma LCAT, FIG. 16

inhibition of esterase activity [1]: inhibited
Molecule: O=C(O)c1cc(SSc2ccc([N+](=O)[O-])c(C(=O)O)c2)ccc1[N+](=O)[O-] [DTNB, 5,5′-dithiobis(2-nitrobenzoic acid)]

B1: human LCAT-like protein/FLAG fusion protein: human LCAT-like protein with FLAG peptide fused at C-terminus, expressed in insect cells, purified on anti-FLAG M2 affinity column (protein)
chain: T1 sequence (Q8NCC3 34-412)
modifications: left off: small tags and cut ends
Km (Lineweaver-Burk) [2, 3]: agreed with the values of human plasma LCAT on an order basis
Vmax (Lineweaver-Burk) [2, 3]: agreed with the values of human plasma LCAT on an order basis

B2: human LCAT-like protein: recombinant human LCAT-like protein expressed in High Five insect cells, semi-purified on Phenyl-Sepharose HP (fractions 6 and 7) (protein, UniProt Q8NCC3 34-412, looked up)
Lysosomal phospholipase A and …: T1 sequence (Q8NCC3 34-412)
esterase activity ([2]; 50 μl semi-purified enzyme solution of fractions 6 and 7 of Example 12, PNPB 100 μM, FIG. 17): confirmed to have esterase activity
